Data: PMC12758336

What was measured:
NRBF2_3A = NRBF2_3A (UniProt Q8VCQ3); assay: co-IP; competitive co-IP: FLAG-tagged bait and GFP-tagged competitor transiently over-expressed in HEK293T; anti-FLAG M2 magnetic beads; immunoblot for endogenous PIK3R4/VPS15 and PIK3C3/VPS34; Figure 6C also after 100 nM rapamycin (2 h) or EBSS medium (2 h)
NRBF2_5A = NRBF2_5A (UniProt Q8VCQ3); assay: as above

endogenous PIK3R4/VPS15 (from UniProt Q99570 1-1358) (natural protein)
endogenous PIK3R4/VPS15 pulled down, against wild type (% less than wild type) (NRBF2_3A): 50 | endogenous PIK3R4/VPS15 pulled down, against wild type (% less than wild type) (NRBF2_5A): 50
